Experimental findings from article PMC6325625, “The traffic ATPase PilF interacts with the inner membrane platform of the DNA translocator and type IV pili from Thermus thermophilus” (FEBS Open Bio, 2018) are described below.

In test [1] the target is T1, PilM (Thermus thermophilus, UniProt Q72IW8, K26A).
T1 construct: full length, N-terminal His6 tag kept; pET28a, E. coli BL21 (DE3), Ni-NTA from the soluble fraction of cells co-expressing pilN-Strep; about 44 kDa monomer
Kind of test: UV photo cross-linking and autoradiography; luciferase ATP content. The note with it: labelled compound [alpha-32P]-ATP; MN buffer pH 7.5, 5 mM MgCl2, 0.02% DDM, on ice; binding not detected.

Test [2] has as its target PilM (Thermus thermophilus, UniProt Q72IW8). Kind of test: luciferase assay of co-purified ATP after TCA precipitation; also UV photo cross-linking with [alpha-32P]-ATP. The note with it: ATP retained from E. coli, none added. Type of test: binding.
Test [3] has as its target His6-PilF (traffic ATPase PilF, hexameric complex) (Thermus thermophilus). Kind of test: native gel or EMSA; clear-native PAGE (3-15%) of purified His6-PilF; data not shown.
Test [4] concerns the target His6-PilM(K26A)-PilN-Strep complex (Thermus thermophilus HB27) (UniProt Q8VRL8).
In test [5] the target is His6-PilM-PilN-Strep complex (Thermus thermophilus HB27) (UniProt Q8VRL8).
Test [6] addresses PilN-Strep (Thermus thermophilus HB27) (UniProt Q8VRL7). The test can be described thus: native gel or EMSA; 5-20% clear-native PAGE of purified His6-PilMN-Strep, His6-PilMNO-Strep and His6-PilM; bands of PilMN cut out and run on 14% SDS/PAGE. (In general: In EMSA bound probe runs differently from free probe, usually more slowly.)

T1 sequence (Q72IW8 entry or part of it K26A): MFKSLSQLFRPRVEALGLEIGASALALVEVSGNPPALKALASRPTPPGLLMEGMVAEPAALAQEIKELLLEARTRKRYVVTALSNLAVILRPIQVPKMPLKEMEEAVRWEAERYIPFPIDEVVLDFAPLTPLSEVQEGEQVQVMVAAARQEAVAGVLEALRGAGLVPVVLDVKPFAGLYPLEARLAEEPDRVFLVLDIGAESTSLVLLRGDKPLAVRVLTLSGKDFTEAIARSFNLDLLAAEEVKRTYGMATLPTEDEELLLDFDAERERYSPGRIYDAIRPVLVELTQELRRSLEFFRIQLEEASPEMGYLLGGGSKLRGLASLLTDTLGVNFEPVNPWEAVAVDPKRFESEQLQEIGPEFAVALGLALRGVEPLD

For the molecule `Nc1ncnc2c1ncn2[C@@H]1O[C@H](COP(=O)(O)OP(=O)(O)OP(=O)(O)O)[C@@H](O)[C@H]1O` [ATP], on PilM [1], the “UV photo cross-linking and autoradiography; luciferase ATP content” value is reported as “no ATP was found in the PilMK26A variant”. Also, the “ATP per PilM monomer” value at PilM [2] amounted to 0.89 ± 0.35 ATP per PilM monomer.
For “His6-PilF (traffic ATPase PilF, hexameric complex) (enzyme)”, the stoichiometry N in test [3] was determined as 6. Moreover, in test [4], the ATPase activity of the PilF hexamer mixed with PilM (K26A)N complex in a ratio of 1 : 20 amounted to 2 fold. Also, the ATPase activity of PilF (malachite green assay, 68 °C, 66.7 pmol PilF hexamer) with increasing amounts of PilMN, up to a ratio of 1 : 20 (PilF complex : PilMN complex) in test [5] came to 2 fold.

B1: His6-PilM (soluble PilM from cells expressing His6-pilMN-Strep) (natural protein)
chain: MFKSLSQLFRPRVEALGLEIGASALKLVEVSGNPPALKALASRPTPPGLLMEGMVAEPAALAQEIKELLLEARTRKRYVVTALSNLAVILRPIQVPKMPLKEMEEAVRWEAERYIPFPIDEVVLDFAPLTPLSEVQEGEQVQVMVAAARQEAVAGVLEALRGAGLVPVVLDVKPFAGLYPLEARLAEEPDRVFLVLDIGAESTSLVLLRGDKPLAVRVLTLSGKDFTEAIARSFNLDLLAAEEVKRTYGMATLPTEDEELLLDFDAERERYSPGRIYDAIRPVLVELTQELRRSLEFFRIQLEEASPEMGYLLGGGSKLRGLASLLTDTLGVNFEPVNPWEAVAVDPKRFESEQLQEIGPEFAVALGLALRGVEPLD
On to B1, for which, in test [6], the stoichiometry N is 1 PilM : PilN and the stoichiometry PilM : PilN of the larger (~195 kDa) oligomer, copies of each chain (copies of each chain) came out at 3.

For orientation: stoichiometry N means a count of units in the complex or per binding partner.
